Laboratory results as given in the DeepSol protein solubility set.

Assay: soluble on expression in E. coli; label from the status in PepcDB or PDB records
With “GPGSMLRRTLYALTRPRDSAAASRDKAHFDVCVIGGGPAGIAAALRAADYNKRVCVVEKARLGGNDLWDGALQSKTMWECSAIMAKMRGDAAMRLYGESLDRYLEIDEVKMRQSMEQVSRIREEQIQAALKASPNVELVLGRATFSSNHEIQCHSKRTKEFRSITADYFIVATGSKPRKHPYVAADGRLVMTSDHIMRAPLPKSLVIVGAGVIGCEFASIIGRLGKTKVSIIDKAPHILPREDPDIVRMIESGMDRAGIVVHHNSDLYDMQPWEETVEEAKARHPADPAPQSGVQYTVMDRTTRKLTTFQVERALISIGRVPDYSRLGIENTTLKTRGSQLHVNEFGQCVGTPHIFAVGDAATHMQLVSMGEAQAKLAVDYIYGTEPKVVPNLTETMSSVAFLTRAVASVGYNESQCREKGIAYIAARYSYEVVSRAVAAANTKGFVKIICADDPERRILGVRALGMNASTLVDIGALAIQNGQGVFDLAGRLTAYPAVSQAFQECLRSILDLSAQLHADPARGVKLTKWTPPDMSRGVAYKGKATAPGESSPRQSGWVIH” the “soluble on expression in E. coli” value was “not soluble”.
With “MSLDIILDQPEQMLFALLRSALNSTKPVSEILFTDISPALWQACYRLACTQGVMALAWDGIQTLPACLQPPKALKLNWAMAVENYEKRYLRYCHTIAELSAFYKTHGITTVQLKGVGLSTYYPIPSHREGGDIDIFTYSADHSRKSDAEANRLADRLMEEKGIEVDFEHSEKHSMFYYKGIPIENHKTFINSETYRIAVKMDKLLQKLLQPVSAELDGKCSILIPSSTFNTVFLAFHAAQHYARGLALHHLCDWACLLNRYDLHIPEEVTDIRFRNMILAMTRLCNDYLGTSVPVYGGEELAEEILREIIRPPYTMSVPAKNKWGILVYKTKRMLHTHRACNSVLRISLCKWVGNSILLHLRSPHTIFQTEREGHHHHHH” the “soluble on expression in E. coli” value was “soluble”.
With “MSALGAPAPYLHHPTDSHSGRVSFLGSQPSAEVTAVAQLLKDLDRSTFRKLLKLVVGALHGKDCREAVQHLGASANLSEERLAVLLAGTHTLLQQALRLPPASLKPDAFQDELQELGIPQDMIGDLASLAFGSQRPLLDSVAQQQGSSLPRVSNFRWRVDVAISTSAQSRSLQPSVLMQLKLTDGSAHRFEVPIAKFQELRYSVALVLKEMAELERKCERKLQD” the “soluble on expression in E. coli” value was “not soluble”.
For “MLEGVVRRREGPDYTVRIKPVARSRILTLPDAPERSSPVIVGIDPGITTGLAVLDINGRLLHAESSKSLDRSRVTEIVYGLGRPVIVAVDVADPPETAKKLAAQWGAMLYTPPADLTTSEKWGLARRVLGSSVEDTHVRDLEHHHHHH”, the “soluble on expression in E. coli” value was “not soluble”.
In the case of “FVSFKHKYKVTSINEIAKDTFEITGTSLKNELKYKAGQFAFIKIPEKKSFFPSHPFTMSNSNKSNEIQFSIKVLGDHTKALKENLKVGDTLSVSGPHGKFNYENGLKHQIWIAGGIGITPFRSFWQAELPSDYTVDLFYTYNNENEGAYINELNSINKNSNLNIHSIDSSKNGFLGLEDLEKHIDKNLEYSVFFCGPKPMREKLRRDFEKVNFKIKDMNYEHFHF”, the “soluble on expression in E. coli” value is reported as “not soluble”.
With “MLQRSVFFLSDRTGITAETLGHSLLTQFDGIEWKKHYASFLDSAAKAQAVIEQINTIAEQEGQPALVFSTLLDPVMLASIRRADCVLFDFFETCLGTLEAVLQQPPARIPGRSHVLRQDASYFRRIAAIQYALNSDDGANAKILADADVIVVGVSRTGKTPVCVYLALQYGVLAANYPFTPEDMGAIQLPPLLQPLRKKLFGLTLNTSRLQSIREERYPGSHYASFAECQRELQWQNELYRQFDIPSINTTDVSIEEISASIVNRAHLERRQHGTLEHHHHHH” the “soluble on expression in E. coli” value was “not soluble”.
With “MAASLRSFLEQLKRQNSLYLVKKPVNPRFELGALLKKTKGTVPMFFQNIEGYDVPAVGGIVGTRENFAQALRINKSELLAKITEAITNPGETRLLPSGPVQENVLTKGFDIGKMFPIPTFHEKDSGAFITAGIVVAKDPIYGRRFTSIRRMQLNGPNNLSILIESPGLIEQYYEFERRGQAMEVAIVLGVHPAITLSSQLPTQTFGLDKYNVASRLIGEPLPVVKCKTIDLEVPADAEIVLEGRMLPYVRHPEGPFGELMGYYGPQTMQPVVEVTAVTFRNNPIFQVIFPSSYEHKLPNALMREVVLFNHVRHVVPTVQDVHLTMAGGGRCHAIISIKKTAEGQGKQAIFAALASNKDVKHVVVVNDDVDIFDPEDVEWAIATRVQADQDIIIIPGAQGTPLEPSHNLRGVSAKMGIDATYPLAEEERFARTQIPGYDQIRLEDYLTLDW” the “soluble on expression in E. coli” value was “soluble”.
For “MENGEAKQSVPLLTPYKMGRFNLSHRVVLAPLTRQRSYGNVPQPHAAIYYSQRTTPGGFLITEATGVSDTAQGYQDTPGIWTKEHVEAWKPIVDAVHAKGGIFFCQIWHVGRVSNSGFQPNGKAPISCSDKPLMPQIRSNGIDEALFTPPRRLGIEEIPGIVNDFRLAARNAMEAGFDGVEIHGANGYLIDQFMKDTVNDRTDEYGGSLQNRCKFPLEIVDAVAKEIGPDRVGIRLSPFADYMESGDTNPGALGLYMAESLNKYGILYCHVIEARMKTMGEVHACPHTLMPMRKAFKGTFISAGGFTREDGNEAVSKGRTDLVAYGRWFLANPDLPKRFQVDAPLNKYDRPTFYTSDPVVGYTDYPFLESTA”, the “soluble on expression in E. coli” value was “soluble”.
For “MSLEQKWKWWEEERYPEGIKWKFLEHKGPVFAPPYEPLPENVKFYYDGKVMKLSPKAEEVATFFAKMLDHEYTTKEIFRKNFFKDWRKEMTNEEKNIITNLSKCDFTQMSQYFKAQTEARKQMSKEEKLKIKEENEKLLKEYGEGHHHHHH”, the “soluble on expression in E. coli” value was “soluble”.
With “SGLVPGRHMMITMDDIIREGNPTLREVAKEVSLPLSEEDISLGKEMLEFLKNSQDPIKAEELHLRGGVGLAAPQLDISKRIIAVHVPSPDPEADGPSLSTVMYNPKILSHSVQDACLGEGEGCLSVDREVPGYVVRHAKITVSYYDMNGEKHKIRLKNYESIVVQHEIDHINGVMFYDHINDQNPFALKEGVLVIE” the “soluble on expression in E. coli” value was “soluble”.
With “VVGHIVNDLQRRKVGDQEVVKFRVASNSRRRTSDGGWEPGNSLFITVNCWGRLVTGVGAALGKGAPVIVVGHVYTSEYEDRDGIRRSSLEMRATSVGPDLSRVIVRIEKPAYTGPSAGDLPAATGTGAAGAADAPASAADSVSDVVVDDAITGHNPLPISA” the “soluble on expression in E. coli” value was “not soluble”.
With “MGSDKIHHHHHHMKKTIIISMLLAAGAATYYFTQQTETPKGPRGRPTPNVVVAKAEMQPIRDEVEALGTGKANESITVTPKVTDMVTEINFNDGQMVDKGQLLVRLQDREQIARVTVARVKMKDHERELARISSLVTSQTVAALERDRLQTLIDTAKAELDQAESSLKDRRILAPFSGRLGLRQVSQGSLVTPGTVITTLDDISTIKLDFSVPERFLQSLAIGKSVEASAVAFEGELFTGKVVSVDSRINPTTRAVTVRAEIPNKGMRLLPGMLMKVKLIKQSREALIIPEAAIIPIQKDHFVYLVNDENVVERRQVQLGLRKRGWVEIVGGVDVGEQVMVRGILKVRPGDTVKVQYSEHFSFNQQAKVEPLA” the “soluble on expression in E. coli” value was “not soluble”.
In the case of “MKPRGICFFDMDGTLLNSESKVLDTSLQALDKLRENNVIPVIATGRTLIEISHQMKITGIESAVMMNGQMAIFEGEKVYEDVIDADLLDRLTEEAKSQNVEVCYYNDKRIGATASTPVVKAHYDFLGEPMPKVRPNMYKEETINMALLLLETGDDYFPERFPELQFVRNTPFSNDVLRKGGSKAVGISKLLEVMGYQDVPTYAFGDGMNDLEMFGAVDYAIAMENAVPLLKEKADFVTKDNNSDGIMLGLKQFDLI”, the “soluble on expression in E. coli” value is reported as “not soluble”.
For “MSQIMYNYPAMLGHAGDMAGYAGTLQSLGAEIAVEQAALQSAWQGDTGITYQAWQAQWNQAMEDLVRAYHAMSSTHEANTMAMMARDTAEAAKWGG”, the “soluble on expression in E. coli” value was “not soluble”.
With “MTGVGTPSPSLEWRRRVMSWTDERVSTLKKLWLDGLSASQIAKQLGGVTRNAVIGKVHRLGLSGRAAPSQPARPAFKAPRPARPAAQAMPSAPRRVTPVEAPTSVPVAAAPAPLPAFRHEEPGSATVLTLGAHMCKWPIGDPSSEGFTFCGRRSSEGPYCVEHARVAYQPQQTKKKSGGAELARSLRRYILEHHHHHH” the “soluble on expression in E. coli” value was “not soluble”.
For “GYIDTGLYQNKEDILNSPRRLGSTQTKLGDIGYTDVNGDGKIDGEDQVRIGKPTMPHFTYAFDFSLGYEGFTLSGLLYGTGERYMTFGNRYQSGEGKYLYYENQLNYWRPDNTGADFPRISISSGVNGNNNKAGSTFWMRNASYLRLKDLQLSYDFKYKYLKKCDWLQTCRVNLSGSNLFTISGVSKFFDPETSSTSGDGYPVQRVYSIGVTIGF”, the “soluble on expression in E. coli” value was “not soluble”.
In the case of “MAPEAQVSVQPNFQQDKFLGRWFSAGLASNSSWLREKKAALSMCKSVVAPATDGGLNLTSTFLRKNQCETRTMLLQPAGSLGSYSYRSPHWGSTYSVSVVETDYDQYALLYSQGSKGPGEDFRMATLYSRTQTPRAELKEKFTAFCKAQGFTEDTIVFLPQTDKCMTEQAHHHHHH”, the “soluble on expression in E. coli” value is reported as “soluble”.
For “MERGVDNWKVDCKCGTKDDDGERMLACDGCGVWHHTRCIGINNADALPSKFLCFRCIEL”, the “soluble on expression in E. coli” value was “soluble”.
For “MKQWADDENLPMERYKNYQMIVPAFIIKDILDGKIPETFEDSKNIKMIEASWGEESYTKGHIPTSVHVNTDIIEPPPTWMLDNDDNLTKFALDYGLTKDDTVIVSSSTPMASYRLAVILRYIGVKDVRVLNGGTNSWLSAGYELEFISNPKLEHHHHHH”, the “soluble on expression in E. coli” value was “not soluble”.
With “MFRLLFVSPRIAPNTGNAIRTCAATGCELHLVEPLGFDLSEPKLRRAGLDYHDLASVTVHASLAHAWEALSPARVFAFTAQATTLFTNVGYRAGDVLMFGPEPTGLDEATLADTHITGQVRIPMLAGRRSLNLSNAAAVAVYEAWRQHGFAGAV” the “soluble on expression in E. coli” value was “not soluble”.
In the case of “MGSDKIHHHHHHDEEPKSSLTLDTYYKTSADIIGNVNYLYRDGAPDKMGNMTGAYRGSSLSVMNMVTGYFVNEYEGQEVDCSYARQLTRQNFTQSCCNYLTNDTWKGCYKSINVANAVIKYVDGVEMDGQAQYKAEARFFRALNYFYLVKMFGDVPMITEPTEDATLVEYPARTAASEVYKTVIIPDLQFAVENLPDATFAGNSHRVTKYAADMLLADVYMRLGEYANAITPLKDVINSGKFALATNDNLAEGSAFNKLRTTDDLPEVIYAREYDAAISPNGNIPVHAFNLISPTFFANSSTGNKYSLWVNVYGVSERYLNVYGEKDLRAQMNQFFHRTYTHPVDGTTLDMKMLCNWYWYDETAILETGKGTKDWNFYRYAETLLSAAEAIAQSSGVNAEAAGYLAQVKARANMEGKDVSTIASELQRLGKQAFIEECWKERLREFPLEMKIWDDCVRTGKFPQISATNKGEVQFVDLIGATNGSGAKFKETDLYWPIPVNEIQRNPNLTQNEGYSAK”, the “soluble on expression in E. coli” value is reported as “not soluble”.
With “MFENTKKALETFRTAIECVKCKKPRGDLQYLGSSCKHAYCWECIATFQQKPSGKRSSVARHMCPSCAFPLDTSKITEAHMLKTCFDTLSELNDLLQKVGTTSLTQAEFACTQNIFNKEKTPADAVEKFLETQAHMPDEMGQLGEEDDDLMCKDENRENSNSPELDIFHDYSKEASPTRNSTKRPSTVSVHERKPKRTLTEILQRRSTAPAATGVATYAQAFGSSSNPVKAEIIEEDIFSKAIPLTKRQASMSASAKKQPKLEPEEPEEVPSTSRSRKNSIKSDKIERRSQSPMSFGEKSMSVKSEQRRSSYGTRRGEAVLVNSIRNNRIPQLRSAVEAGTCVNEKEDGKTPLYVAVENSSLEAVKILVEAGAVINASCGSTLETTLHEAVRRQNTQIVEYLLSKGASIKIRNIAGKTVEEMAKSDPKIRKIIEKFKTEQRVLQPVVAPPKSRLHFVQLIDEKMLTESEKRKLPGKINIVPADMDSPTHVVVTVDLKTRVLNINKEHIGEILKAIIKSGMIVSRDWLRACIIDPSKVDDDRSYMVQKVRWMEGEVFENTIEQWKKTITKMQPKLFAGCKFFIPKPKYNFLDRPALFEIIRSAGGQAAAREPIIDEKDPPPYHNANLKPNFVLYSLTHDIGDKFRDCTKYNLVSEQWLIEAILGCSITTPPH” the “soluble on expression in E. coli” value was “not soluble”.
